Results as given in CN112521508A (BEIJING GUANGWEI BIOTECHNOLOGY CO LTD, dated 2021).

T1: 人CD20蛋白 (human CD20) (human, UniProt P11836 1-297, limits assumed)
T1 construct: its title names human CD20; also called 抗原
T1 sequence (looked up): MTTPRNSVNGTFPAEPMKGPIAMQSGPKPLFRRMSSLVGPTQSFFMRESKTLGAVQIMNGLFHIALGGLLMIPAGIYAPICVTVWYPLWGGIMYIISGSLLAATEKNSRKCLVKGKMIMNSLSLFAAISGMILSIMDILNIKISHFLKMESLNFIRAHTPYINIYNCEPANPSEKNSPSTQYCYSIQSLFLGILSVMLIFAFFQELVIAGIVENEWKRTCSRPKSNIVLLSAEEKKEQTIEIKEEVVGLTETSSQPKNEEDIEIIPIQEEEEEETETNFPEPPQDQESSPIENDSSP


Molecular target: T1, 人CD20蛋白 (human CD20)
Experiment: SPR (CM5 chip), antibody captured by anti-human capture antibody, antigen as analyte

Binder | Kd [nM] | koff [s⁻¹] | kon [M⁻¹ s⁻¹]
Rituximab (antibody, V domains shown) VH: QVQLQQPGAELVKPGASVKMSCKASGYTFTSYNMHWVKQTPGRGLEWIGAIYPGNGDTSYNQKFKGKATLTADKSSSTAYMQLSSLTSEDSAVYYCARSTYYGGDWYFNVWGAGTTVTVSA VL: QIVLSQSPAILSASPGEKVTMTCRASSSVSYIHWFQQKPGSSPKPWIYATSNLASGVPVRFSGSGSGTSYSLTISRVEAEDAATYYCQQWTSNPPTFGGGTKLEIK | 5.46 | 0.000345 | 63100
hG7B2-IgG1 (antibody, V domains shown) VH: QVQLVQSGGEVKKPGASVKVSCKTSGYRFTSGKNAVWVRQAPGQGLEWMGGIATGKFNLSVDLQGRLTLTTDTSTSTAYMELGSLRPDDTAVYYCTRDIRLYAGDYWGQGTLVTVSS VL: DIVLTQPASVSGSPGQSVTISCSAIDGNCFNKVSWYQQHPGKAPKLMIYDASKRCTGIPERFSGSNSGNTATLTISRVEAGDEADYYCQAASKDAPITTFGRGTKLTVL | 0.215 | 5.31e-05 | 246000
